The source of these data is patent publication US20170306033A1 (Amgen, published 2017).

The target in one assay is human CGRP receptor (human, UniProt Q16602 23-461; O60894 27-148). The assay can be described thus: cell-based or functional assay.
A further assay has as its target T1, human PAC1 receptor (human, UniProt P41586 21-468).
T1 sequence: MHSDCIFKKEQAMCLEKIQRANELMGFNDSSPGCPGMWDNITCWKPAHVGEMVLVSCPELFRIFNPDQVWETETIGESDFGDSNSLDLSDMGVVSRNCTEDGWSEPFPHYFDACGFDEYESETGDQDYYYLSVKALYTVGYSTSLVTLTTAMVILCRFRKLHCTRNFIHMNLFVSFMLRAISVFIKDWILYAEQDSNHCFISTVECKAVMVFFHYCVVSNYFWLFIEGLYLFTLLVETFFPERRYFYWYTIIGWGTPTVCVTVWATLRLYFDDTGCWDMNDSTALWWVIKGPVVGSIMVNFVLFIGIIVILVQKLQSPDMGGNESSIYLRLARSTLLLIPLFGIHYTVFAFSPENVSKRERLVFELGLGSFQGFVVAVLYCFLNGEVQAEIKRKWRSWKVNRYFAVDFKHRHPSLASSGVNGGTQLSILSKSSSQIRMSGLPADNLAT
The assay can be described thus: cell-based or functional assay.

Chain of human CGRP receptor (Q16602 23-461 limits assumed, chain 1 of 2): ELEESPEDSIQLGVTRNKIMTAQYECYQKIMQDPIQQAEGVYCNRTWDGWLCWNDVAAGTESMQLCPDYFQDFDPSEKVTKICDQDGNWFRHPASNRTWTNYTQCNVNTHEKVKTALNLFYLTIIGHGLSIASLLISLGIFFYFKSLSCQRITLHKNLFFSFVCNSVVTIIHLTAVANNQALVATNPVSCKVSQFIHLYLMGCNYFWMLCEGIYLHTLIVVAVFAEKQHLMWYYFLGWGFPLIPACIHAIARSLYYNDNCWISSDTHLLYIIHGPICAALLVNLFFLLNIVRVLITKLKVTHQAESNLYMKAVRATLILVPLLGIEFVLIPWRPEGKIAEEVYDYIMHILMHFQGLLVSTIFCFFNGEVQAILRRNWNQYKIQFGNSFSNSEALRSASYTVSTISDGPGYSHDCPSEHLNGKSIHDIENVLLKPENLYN
Chain of human CGRP receptor (O60894 27-148 limits assumed, chain 2 of 2): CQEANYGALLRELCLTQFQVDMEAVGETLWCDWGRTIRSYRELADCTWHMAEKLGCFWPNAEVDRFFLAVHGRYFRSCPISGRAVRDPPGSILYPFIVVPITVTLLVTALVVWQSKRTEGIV

B1: iPS:327689 (bispecific antibody, human IgG1, kappa, lambda, N297G)
light 1: not shown
heavy 1: not shown
light 2: QSVLTQPPSVSAAPGQKVTISCSGSSSNIGNNYVSWYQQLPGTAPKLLIYDNNKRPSGIPDRFSGSKSGTSTTLGITGLQTGDEADYYCGTWDSRLSAVVFGGGTKLTVLGQPKANPTVTLFPPSSEELQANKATLVCLISDFYPGAVTVAWKADGSPVKAGVETTKPSKQSNNKYAAKSYLSLTPEQWKSHRSYSCQVTHEGSTVEKTVAPTECS
heavy 2: QVQLVESGGGVVQPGRSLRLSCAASGFTFSSFGMHWVRQAPGKGLEWVAVISFDGSIKYSVDSVKGRFTISRDNSKNTLFLQMNSLRAEDTAVYYCARDRLNYYESSGYYHYKYYGMAVWGQGTTVTVSSASTKGPSVFPLAPSSKSTSGGTAALGCLVKDYFPEPVTVSWNSGALTSGVHTFPAVLQSSGLYSLESVVTVPSSSLGTQTYICNVNHKPSNTKVDKKVEPKSCDKTHTCPPCPAPELLGGPSVFLFPPKPKDTLMISRTPEVTCVVVDVSHEDPEVKFNWYVDGVEVHNAKTKPCEEQYGSTYRCVSVLTVLHQDWLNGKEYKCKVSNKALPAPIEKTISKAKGQPREPQVYTLPPSRKEMTKNQVSLTCLVKGFYPSDIAVEWESNGQPENNYKTTPPVLKSDGSFFLYSKLTVDKSRWQQGNVFSCSVMHEALHNHYTQKSLSLSPGK
Consider B1, for which the “% inhibition of human CGRPR” value in the assay with human CGRP receptor was 78%. The “% inhibition of human PAC1” value in the assay with human PAC1 receptor amounted to 86%.

B2: iPS:327683 (bispecific antibody, human IgG1, kappa, N297G)
light 1: DIQLTQSPSFLSASVGDRVTITCRASQSIGRSLHWYQQKPGKAPKLLIKYASQSLSGVPSRFSGSGSGTEFTLTISSLQPEDFATYYCHQSSRLPFTFGEGTKVDIKRTVAAPSVFIFPPSDEQLKSGTASVVCLLNNFYPREAKVQWKVDNALQSGNSQESVTEQDSKDSTYSLESTLTLSKADYEKHKVYACEVTHQGLSSPVTKSFNRGEC
heavy 1: not shown
light 2: EIVLTQSPGTLSLSPGERATLSCRASQSVSSGYLTWYQQKPGQAPRLLIYGASSRATGIPDRFSGSGSGTDFTLTISRLEPEDFAVYYCQQYGNSLSRFGKGTKLEIKRTVAAPSVFIFPPSDEQLKSGTASVVCLLNNFYPREAKVQWKVDNALQSGNSQESVTEQDSKDSTYSLKSTLTLSKADYEKHKVYACEVTHQGLSSPVTKSFNRGEC
heavy 2: QVQLVESGGGVVQPGRSLRLSCAASGFTFSSYGMHWVRQAPGKELEWVAVIWYDGSNKYYAESVKGRFIISRDKSKNTLYLQMNSLRAEDTAVYYCARAGGIAAAGLYYYYGMDVWGQGTTVTVSSASTKGPSVFPLAPSSKSTSGGTAALGCLVKDYFPEPVTVSWNSGALTSGVHTFPAVLQSSGLYSLESVVTVPSSSLGTQTYICNVNHKPSNTKVDKKVEPKSCDKTHTCPPCPAPELLGGPSVFLFPPKPKDTLMISRTPEVTCVVVDVSHEDPEVKFNWYVDGVEVHNAKTKPCEEQYGSTYRCVSVLTVLHQDWLNGKEYKCKVSNKALPAPIEKTISKAKGQPREPQVYTLPPSRKEMTKNQVSLTCLVKGFYPSDIAVEWESNGQPENNYKTTPPVLKSDGSFFLYSKLTVDKSRWQQGNVFSCSVMHEALHNHYTQKSLSLSPGK
Regarding B2, the “% inhibition of human CGRPR” value with human CGRP receptor amounted to 70%. Besides, in the assay with human PAC1 receptor, the “% inhibition of human PAC1” value came to 30%.

B3: iPS:327685 (bispecific antibody, human IgG1, kappa, N297G)
light 1: not shown
heavy 1: not shown
light 2: EIVLTQSPGTLSLSPGERATLSCRASQSVSSGYLTWYQQKPGQAPRLLIYGASSRATGIPDRFSGSGSGTDFTLTISRLEPEDFAVYYCQQYGNSLSRFGQGTKLEIKRTVAAPSVFIFPPSDEQLKSGTASVVCLLNNFYPREAKVQWKVDNALQSGNSQESVTEQDSKDSTYSLKSTLTLSKADYEKHKVYACEVTHQGLSSPVTKSFNRGEC
heavy 2: not shown
For the molecule B3, in the assay with human CGRP receptor, the “% inhibition of human CGRPR” value was 86%. Moreover, in the assay with human PAC1 receptor, the “% inhibition of human PAC1” value stood at 85%.

B4: iPS:327684 (bispecific antibody, human IgG1, kappa, N297G)
light 1: EIVLTQSPATLSLSPGERATLSCRASQSVGRSLHWYQQKPGQAPRLLIKYASQSLSGIPARFSGSGSGTDFTLTISSLEPEDFAVYYCHQSSRLPFTFGEGTKVDIKRTVAAPSVFIFPPSDEQLKSGTASVVCLLNNFYPREAKVQWKVDNALQSGNSQESVTEQDSKDSTYSLESTLTLSKADYEKHKVYACEVTHQGLSSPVTKSFNRGEC
heavy 1: not shown
light 2: EIVLTQSPGTLSLSPGERATLSCRASQSVSSGYLTWYQQKPGQAPRLLIYGASSRATGIPDRFSGSGSGTDFTLTISRLEPEDFAVYYCQQYGNSLSRFGKGTKLEIKRTVAAPSVFIFPPSDEQLKSGTASVVCLLNNFYPREAKVQWKVDNALQSGNSQESVTEQDSKDSTYSLKSTLTLSKADYEKHKVYACEVTHQGLSSPVTKSFNRGEC
heavy 2: QVQLVESGGGVVQPGRSLRLSCAASGFTFSSYGMHWVRQAPGKELEWVAVIWYDGSNKYYAESVKGRFIISRDKSKNTLYLQMNSLRAEDTAVYYCARAGGIAAAGLYYYYGMDVWGQGTTVTVSSASTKGPSVFPLAPSSKSTSGGTAALGCLVKDYFPEPVTVSWNSGALTSGVHTFPAVLQSSGLYSLESVVTVPSSSLGTQTYICNVNHKPSNTKVDKKVEPKSCDKTHTCPPCPAPELLGGPSVFLFPPKPKDTLMISRTPEVTCVVVDVSHEDPEVKFNWYVDGVEVHNAKTKPCEEQYGSTYRCVSVLTVLHQDWLNGKEYKCKVSNKALPAPIEKTISKAKGQPREPQVYTLPPSRKEMTKNQVSLTCLVKGFYPSDIAVEWESNGQPENNYKTTPPVLKSDGSFFLYSKLTVDKSRWQQGNVFSCSVMHEALHNHYTQKSLSLSPGK
Turning to B4, the “% inhibition of human CGRPR” value with human CGRP receptor was 71%. The “% inhibition of human PAC1” value with human PAC1 receptor stood at 74%.

B5: iPS:327686 (bispecific antibody, human IgG1, kappa, N297G)
light 1: not shown
heavy 1: not shown
light 2: EIVLTQSPGTLSLSPGERATLSCRASQSVSSGYLTWYQQKPGQAPRLLIYGASSRATGIPDRFSGSGSGTDFTLTISRLEPEDFAVYYCQQYGNSLSRFGQGTKLEIKRTVAAPSVFIFPPSDEQLKSGTASVVCLLNNFYPREAKVQWKVDNALQSGNSQESVTEQDSKDSTYSLKSTLTLSKADYEKHKVYACEVTHQGLSSPVTKSFNRGEC
heavy 2: not shown
Turning to B5, in the assay with human CGRP receptor, the “% inhibition of human CGRPR” value came to 87%. In addition, the “% inhibition of human PAC1” value with human PAC1 receptor turned out to be 69%.

B6: iPS:327678 (bispecific antibody, human IgG1, kappa, N297G)
light 1: not shown
heavy 1: not shown
light 2: EIVLTQSPGTLSLSPGERATLSCRASQSVSSGYLTWYQQKPGQAPRLLIYGASSRATGIPDRFSGSGSGTDFTLTISRLEPEDFAVYYCQQYGNSLSRFGQGTKLEIKRTVAAPSVFIFPPSDEQLKSGTASVVCLLNNFYPREAKVQWKVDNALQSGNSQESVTEQDSKDSTYSLKSTLTLSKADYEKHKVYACEVTHQGLSSPVTKSFNRGEC
heavy 2: not shown
For the molecule B6, in the assay with human CGRP receptor, the “% inhibition of human CGRPR” value is 84%. The “% inhibition of human PAC1” value with human PAC1 receptor was 43%.
